Here are results for one molecule from patent publication US10864252B2, “Anti-SSX-2 T cell receptors and related materials and methods of use” (The United States of America, as represented by the …, priority 2010, dated 2020).

Common to all, as to format: cell-based
One assay concerns T331A mel. The experiment in a line: IFN-γ release, co-culture with T331A. To be noted: for IFN-γ: co-cultured with T331A; for interferon-γ levels: co-cultured with T331A mel. From the text: (§1) SSX-2 TCR-transduced PBLs were co-cultured with various tumor cell lines. […] FIGS. 4A and 4B, FIG. 11, and Tables 3 and 4 show additional results of PBLs from human donors that were transduced with the SSX-2 TCR of Example 2 when these PBLs were co-cultured with various tumor cells. PBLs that were untransduced (UT) or transduced with a vector comprising SEQ ID NO: 27 (SSX-2 TCR), SEQ ID NO: 29 (codon-optimized SSX-2 TCR), or SEQ ID NO: 30 (codon-optimized SSX-2 TCR including mouse constant region) were co-cultured with various tumor cell lines. Tables 5 and 6 show the resulting interferon-γ levels (pg/ml) measured with respect to PBL from two different donors.

Another assay concerns SSX-1 to SSX-10 peptides. Description: Co-culture with T2 cells pulsed with SSX family peptides. To be noted: peptide-pulsed T2 cells; FIG. 5. The protocol: The peptides used for pulsing were: SSX-1 (KYSEKISYV, SEQ ID NO: 32) (-♦-); SSX-2 (KASEKIFYV, SEQ ID NO: 2) (▪); SSX-3 (KVSEKIVYV, SEQ ID NO: 8) (▪); SSX-4 (KSSEKIVYV, SEQ ID NO: 9) (X); SSX-5 (KASEKIIYV, SEQ ID NO: 10) ( ? ); SSX-6 (KFSEKISCV, SEQ ID NO: 33) (•); SSX-7 (KSLEKISYV, SEQ ID NO: 34) (|); SSX-8 KYSEKISYV, SEQ ID NO: 32) (-); SSX-9 (KSSEKIIYV, SEQ ID NO: 11) (—); and SSX-10 (KASEKILYV, SEQ ID NO: 12) (--♦--).
Co-culture assays were performed with PBLs transduced with the SSX-2 TCR of Example 2 and peptide-pulsed T2 cells.

A further assay deals with 888. The experiment in a line: IFN-γ release, co-culture with 888. To be noted: co-cultured with 888. From the text: (§2) SSX-2 TCR-transduced PBLs were co-cultured with various tumor cell lines. […] FIGS. 4A and 4B, FIG. 11, and Tables 3 and 4 show additional results of PBLs from human donors that were transduced with the SSX-2 TCR of Example 2 when these PBLs were co-cultured with various tumor cells.

The subject of assay [1] is SSX-2+/HLA-A2+ target cells. The experiment in a line: Percent lysis of target cells. The note with it: FIGS. 7A-D and 8A-D, various E:T ratios.
Assay [2] has as its system melanoma (624, and 1300) and glioblastoma cell lines (U251). Description: IFN-γ release, co-culture with various tumor cell lines (FIG. 3). From the text:
SSX-2 TCR-transduced PBLs were co-cultured with various tumor cell lines.

Another assay concerns MCF7. Description: IFN-γ release, co-culture with MCF7. The note with it: co-cultured with MCF7.
From the text: as §2

For a further assay, the system named is Lau 149 mel. Description: IFN-γ release, co-culture with Lau 149 mel. To be noted: co-cultured with Lau 149 mel. From the text: PBLs that were untransduced (UT) or transduced with a vector comprising SEQ ID NO: 27 (SSX-2 TCR), SEQ ID NO: 29 (codon-optimized SSX-2 TCR), or SEQ ID NO: 30 (codon-optimized SSX-2 TCR including mouse constant region) were co-cultured with various tumor cell lines. Tables 5 and 6 show the resulting interferon-γ levels (pg/ml) measured with respect to PBL from two different donors.

A further assay has as its system 938-A2 mel. The experiment in a line: IFN-γ release, co-culture with 938-A2 melanoma. The note with it: Table 3; co-cultured with 938-A2 (Melanoma).
From the text: as §1

In another assay the test system is U251 Glioma. The experiment in a line: IFN-γ release, co-culture with U251 glioma. The note with it: co-cultured with U251 (Glioma).
From the text: as §1

The subject of the next assay is OVCAR3. The experiment in a line: IFN-γ release, co-culture with OVCAR3. The note with it: co-cultured with OVCAR3.
From the text: as §2

B1: SSX2-TCR-WT: HLA-A2 restricted anti-SSX-2 TCR alpha and beta chains encoded by SEQ ID NO: 27, tested as transduced human PBLs (protein)
chain: MSLSSLLKVVTASLWLGPGIAQKITQTQPGMFVQEKEAVTLDCTYDTSDPSYGLFWYKQPSSGEMIFLIYQGSYDQQNATEGRYSLNFQKARKSANLVISASQLGDSAMYFCAMTSGFGNEKLTFGTGTRLTIIPNIQNPDPAVYQLRDSKSSDKSVCLFTDFDSQTNVSQSKDSDVYITDKTVLDMRSMDFKSNSAVAWSNKSDFACANAFNNSIIPEDTFFPSPESSCDVKLVEKSFETDTNLNFQNLSVIGFRILLLKVAGFNLLMTLRLWSSRAKRSGSGATNFSLLKQAGDVEENPGPMGPGLLHWMALCLLGTGHGDAMVIQNPRYQVTQFGKPVTLSCSQTLNHNVMYWYQQKSSQAPKLLFHYYDKDFNNEADTPDNFQSRRPNTSFCFLDIRSPGLGDAAMYLCATSRGQGGQPQHFGDGTRLSILEDLNKVFPPEVAVFEPSEAEISHTQKATLVCLATGFFPDHVELSWWVNGKEVHSGVSTDPQPLKEQPALNDSRYCLSSRLRVSATFWQNPRNHFRCQVQFYGLSENDEWTQDRAKPVTQIVSAEAWGRADCGFTSVSYQQGVLSATILYEILLGKATLYAVLVSALVLMAMVKRKDF
On to B1, for which the IFN-γ in the assay with T331A mel (Table 3) is 0 pg/mL; in the assay on T331A mel (Table 4), 42 pg/mL; with 888 (Table 3), 126 pg/mL; in the assay on 888 (Table 4), 143 pg/mL; with MCF7 (Table 3), 0 pg/mL; in the assay on MCF7 (Table 4), 3 pg/mL. Also, the IFN-γ with 938-A2 mel is 19320 pg/mL; with U251 Glioma (Table 3), 9770 pg/mL; in the assay on U251 Glioma (Table 4), 12025 pg/mL; in the assay with OVCAR3 (Table 3) it was 0 pg/mL; in the assay with OVCAR3 (Table 4), 21 pg/mL. Besides, the interferon-γ levels in the assay on T331A mel (Table 5 donor) stood at 30 pg/mL; in the assay with T331A mel (Table 6 donor) it was 58 pg/mL; in the assay on Lau 149 mel (Table 5 donor), 285 pg/mL; with Lau 149 mel (Table 6 donor) it was 125 pg/mL. For the same molecule, in the assay with SSX-1 to SSX-10 peptides, the “reactivity with SSX family peptides” value is “most reactive with the peptide of SSX-2 and also recognizes the peptides of SSX-3, -4, -5, -9, and -10 over the other SSX peptides”. In assay [1], the “lytic activity (percent lysis)” value was “specific lytic activity against SSX-2^+/HLA-A2^+ target cells”. Also, the “recognition of tumor cell lines (IFN-γ)” value in [2] is “recognized naturally processed and presented SSX-2 protein in both melanoma (624, and 1300) and glioblastoma cell lines (U251)”.
